Assay results from patent US9284543B2, “Neutral active soluble truncated PH20 polypeptides and uses thereof” (Halozyme, Inc., priority 2008, dated 2016).

How the values were obtained:
CHO-S cells = experiment: Western blot analysis of PH20 expression in media and cells after transient expression; format: cell-based, Chinese Hamster; settings: media versus cells
Procedure, shortened: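 CHO-S cells were transiently transfected with mutant PH20-HZ24 plasmids using GeneJuice and expressed for 48-72 h at 37 °C, 5% CO2. Media and cells were harvested separately, with PI-PLC treatment used to release GPI-anchored protein. Non-reduced samples were blotted with rabbit anti-PH20 (0.5 μg/mL), and a band near 66 kDa was scored as PH20.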

[1] = Microtiter hyaluronidase activity assay with biotinylated-hyaluronic acid; format: biochemical; settings: Table 6, 72 hour post transfection supernatant

Row | Molecule | pH 5.5 Activity [1] [Units/ml] | pH 7.4 Activity [1] [Units/ml] | Expressed in Media (CHO-S cells)
1 | SPAM1-IFYN: C-terminally truncated human PH20, precursor 483 aa (SEQ ID NO:17), mature 448 aa (SEQ ID NO:69) (protein, listed as Homo sapiens, HuPH20 precursor 1-483; Mature HuPH20 36-483) chain 1: MGVLKFKHIFFRSFVKSSGVSQIVFTFLLIPCCLTLNFRAPPVIPNVPFLWAWNAPSEFCLGKFDEPLDMSLFSFIGSPRINATGQGVTIFYVDRLGYYPYIDSITGVTVNGGIPQKISLQDHLDKAKKDITFYMPVDNLGMAVIDWEEWRPTWARNWKPKDVYKNRSIELVQQQNVQLSLTEATEKAKQEFEKAGKDFLVETIKLGKLLRPNHLWGYYLFPDCYNHHYKKPGYNGSCFNVEIKRNDDLSWLWNESTALYPSIYLNTQQSPVAATLYVRNRVREAIRVSKIPDAKSPLPVFAYTRIVFTDQVLKFLSQDELVYTFGETVALGASGIVIWGTLSIMRSMKSCLLLDNYMETILNPYIINVTLAAKMCSQVLCQEQGVCIRKNWNSSDYLHLNPDNFAIQLEKGGKFTVRGKPTLEDLEQFSEKFYCSCYSTLSCKEKADVKDTDAVDVCIADGVCIDAFLKPPMETEEPQIFYN chain 2: LNFRAPPVIPNVPFLWAWNAPSEFCLGKFDEPLDMSLFSFIGSPRINATGQGVTIFYVDRLGYYPYIDSITGVTVNGGIPQKISLQDHLDKAKKDITFYMPVDNLGMAVIDWEEWRPTWARNWKPKDVYKNRSIELVQQQNVQLSLTEATEKAKQEFEKAGKDFLVETIKLGKLLRPNHLWGYYLFPDCYNHHYKKPGYNGSCFNVEIKRNDDLSWLWNESTALYPSIYLNTQQSPVAATLYVRNRVREAIRVSKIPDAKSPLPVFAYTRIVFTDQVLKFLSQDELVYTFGETVALGASGIVIWGTLSIMRSMKSCLLLDNYMETILNPYIINVTLAAKMCSQVLCQEQGVCIRKNWNSSDYLHLNPDNFAIQLEKGGKFTVRGKPTLEDLEQFSEKFYCSCYSTLSCKEKADVKDTDAVDVCIADGVCIDAFLKPPMETEEPQIFYN | 2.3085 | 2.45 | YES
2 | SPAM1-PQIF: C-terminally truncated human PH20, precursor 481 aa (SEQ ID NO:19), mature 446 aa (SEQ ID NO:71) (protein, listed as Homo sapiens, HuPH20 precursor 1-481; Mature HuPH20 36-481) chain 1: MGVLKFKHIFFRSFVKSSGVSQIVFTFLLIPCCLTLNFRAPPVIPNVPFLWAWNAPSEFCLGKFDEPLDMSLFSFIGSPRINATGQGVTIFYVDRLGYYPYIDSITGVTVNGGIPQKISLQDHLDKAKKDITFYMPVDNLGMAVIDWEEWRPTWARNWKPKDVYKNRSIELVQQQNVQLSLTEATEKAKQEFEKAGKDFLVETIKLGKLLRPNHLWGYYLFPDCYNHHYKKPGYNGSCFNVEIKRNDDLSWLWNESTALYPSIYLNTQQSPVAATLYVRNRVREAIRVSKIPDAKSPLPVFAYTRIVFTDQVLKFLSQDELVYTFGETVALGASGIVIWGTLSIMRSMKSCLLLDNYMETILNPYIINVTLAAKMCSQVLCQEQGVCIRKNWNSSDYLHLNPDNFAIQLEKGGKFTVRGKPTLEDLEQFSEKFYCSCYSTLSCKEKADVKDTDAVDVCIADGVCIDAFLKPPMETEEPQIF chain 2: LNFRAPPVIPNVPFLWAWNAPSEFCLGKFDEPLDMSLFSFIGSPRINATGQGVTIFYVDRLGYYPYIDSITGVTVNGGIPQKISLQDHLDKAKKDITFYMPVDNLGMAVIDWEEWRPTWARNWKPKDVYKNRSIELVQQQNVQLSLTEATEKAKQEFEKAGKDFLVETIKLGKLLRPNHLWGYYLFPDCYNHHYKKPGYNGSCFNVEIKRNDDLSWLWNESTALYPSIYLNTQQSPVAATLYVRNRVREAIRVSKIPDAKSPLPVFAYTRIVFTDQVLKFLSQDELVYTFGETVALGASGIVIWGTLSIMRSMKSCLLLDNYMETILNPYIINVTLAAKMCSQVLCQEQGVCIRKNWNSSDYLHLNPDNFAIQLEKGGKFTVRGKPTLEDLEQFSEKFYCSCYSTLSCKEKADVKDTDAVDVCIADGVCIDAFLKPPMETEEPQIF | 1.701 | 1.818 | YES
3 | SPAM1-FYNA: C-terminally truncated human PH20, precursor 484 aa (SEQ ID NO:16), mature 449 aa (SEQ ID NO:68) (protein, listed as Homo sapiens, HuPH20 precursor 1-484; Mature HuPH20 36-484) chain 1: MGVLKFKHIFFRSFVKSSGVSQIVFTFLLIPCCLTLNFRAPPVIPNVPFLWAWNAPSEFCLGKFDEPLDMSLFSFIGSPRINATGQGVTIFYVDRLGYYPYIDSITGVTVNGGIPQKISLQDHLDKAKKDITFYMPVDNLGMAVIDWEEWRPTWARNWKPKDVYKNRSIELVQQQNVQLSLTEATEKAKQEFEKAGKDFLVETIKLGKLLRPNHLWGYYLFPDCYNHHYKKPGYNGSCFNVEIKRNDDLSWLWNESTALYPSIYLNTQQSPVAATLYVRNRVREAIRVSKIPDAKSPLPVFAYTRIVFTDQVLKFLSQDELVYTFGETVALGASGIVIWGTLSIMRSMKSCLLLDNYMETILNPYIINVTLAAKMCSQVLCQEQGVCIRKNWNSSDYLHLNPDNFAIQLEKGGKFTVRGKPTLEDLEQFSEKFYCSCYSTLSCKEKADVKDTDAVDVCIADGVCIDAFLKPPMETEEPQIFYNA chain 2: LNFRAPPVIPNVPFLWAWNAPSEFCLGKFDEPLDMSLFSFIGSPRINATGQGVTIFYVDRLGYYPYIDSITGVTVNGGIPQKISLQDHLDKAKKDITFYMPVDNLGMAVIDWEEWRPTWARNWKPKDVYKNRSIELVQQQNVQLSLTEATEKAKQEFEKAGKDFLVETIKLGKLLRPNHLWGYYLFPDCYNHHYKKPGYNGSCFNVEIKRNDDLSWLWNESTALYPSIYLNTQQSPVAATLYVRNRVREAIRVSKIPDAKSPLPVFAYTRIVFTDQVLKFLSQDELVYTFGETVALGASGIVIWGTLSIMRSMKSCLLLDNYMETILNPYIINVTLAAKMCSQVLCQEQGVCIRKNWNSSDYLHLNPDNFAIQLEKGGKFTVRGKPTLEDLEQFSEKFYCSCYSTLSCKEKADVKDTDAVDVCIADGVCIDAFLKPPMETEEPQIFYNA | 1.262 | 1.4985 | YES

The next lines start with results.

Row | pH 5.5 Activity [1] [Units/ml] | pH 7.4 Activity [1] [Units/ml] | Molecule | Expressed in Media (CHO-S cells)
4 | 1.647 | 2.032 | SPAM1-QIFY: C-terminally truncated human PH20, precursor 482 aa (SEQ ID NO:18), mature 447 aa (SEQ ID NO:70) (protein, listed as Homo sapiens, HuPH20 precursor 1-482; Mature HuPH20 36-482) chain 1: MGVLKFKHIFFRSFVKSSGVSQIVFTFLLIPCCLTLNFRAPPVIPNVPFLWAWNAPSEFCLGKFDEPLDMSLFSFIGSPRINATGQGVTIFYVDRLGYYPYIDSITGVTVNGGIPQKISLQDHLDKAKKDITFYMPVDNLGMAVIDWEEWRPTWARNWKPKDVYKNRSIELVQQQNVQLSLTEATEKAKQEFEKAGKDFLVETIKLGKLLRPNHLWGYYLFPDCYNHHYKKPGYNGSCFNVEIKRNDDLSWLWNESTALYPSIYLNTQQSPVAATLYVRNRVREAIRVSKIPDAKSPLPVFAYTRIVFTDQVLKFLSQDELVYTFGETVALGASGIVIWGTLSIMRSMKSCLLLDNYMETILNPYIINVTLAAKMCSQVLCQEQGVCIRKNWNSSDYLHLNPDNFAIQLEKGGKFTVRGKPTLEDLEQFSEKFYCSCYSTLSCKEKADVKDTDAVDVCIADGVCIDAFLKPPMETEEPQIFY chain 2: LNFRAPPVIPNVPFLWAWNAPSEFCLGKFDEPLDMSLFSFIGSPRINATGQGVTIFYVDRLGYYPYIDSITGVTVNGGIPQKISLQDHLDKAKKDITFYMPVDNLGMAVIDWEEWRPTWARNWKPKDVYKNRSIELVQQQNVQLSLTEATEKAKQEFEKAGKDFLVETIKLGKLLRPNHLWGYYLFPDCYNHHYKKPGYNGSCFNVEIKRNDDLSWLWNESTALYPSIYLNTQQSPVAATLYVRNRVREAIRVSKIPDAKSPLPVFAYTRIVFTDQVLKFLSQDELVYTFGETVALGASGIVIWGTLSIMRSMKSCLLLDNYMETILNPYIINVTLAAKMCSQVLCQEQGVCIRKNWNSSDYLHLNPDNFAIQLEKGGKFTVRGKPTLEDLEQFSEKFYCSCYSTLSCKEKADVKDTDAVDVCIADGVCIDAFLKPPMETEEPQIFY | YES
5 | 1.748 | 1.8765 | SPAM1-YNAS: C-terminally truncated human PH20, precursor 485 aa (SEQ ID NO:15), mature 450 aa (SEQ ID NO:67) (protein, listed as Homo sapiens, mature HuPH20 36-485) LNFRAPPVIPNVPFLWAWNAPSEFCLGKFDEPLDMSLFSFIGSPRINATGQGVTIFYVDRLGYYPYIDSITGVTVNGGIPQKISLQDHLDKAKKDITFYMPVDNLGMAVIDWEEWRPTWARNWKPKDVYKNRSIELVQQQNVQLSLTEATEKAKQEFEKAGKDFLVETIKLGKLLRPNHLWGYYLFPDCYNHHYKKPGYNGSCFNVEIKRNDDLSWLWNESTALYPSIYLNTQQSPVAATLYVRNRVREAIRVSKIPDAKSPLPVFAYTRIVFTDQVLKFLSQDELVYTFGETVALGASGIVIWGTLSIMRSMKSCLLLDNYMETILNPYIINVTLAAKMCSQVLCQEQGVCIRKNWNSSDYLHLNPDNFAIQLEKGGKFTVRGKPTLEDLEQFSEKFYCSCYSTLSCKEKADVKDTDAVDVCIADGVCIDAFLKPPMETEEPQIFYNAS | YES
